US20220389118A1 (Chugai, published 2022)
Substitutions are numbered along the chain they refer to. Read-outs that look alike come from different tables or passages of the source.

Columns and labels:
human FcRn [1] = molecular target: T1, human FcRn (human, UniProt P55899 24-297; P61769 21-119); test: binding to FcRn at pH 6.0; method not stated
T1 construct: the construct is not described

human FcRn [2] = molecular target: T1, human FcRn; test: FcRn binding affinity at pH 6.0; method not stated
[3] = molecular target: T2, human FcγRIIa type H extracellular domain with C-terminal His tag (human, UniProt P12318 34-217); test: SPR (Biacore)
T2 construct: extracellular domain; also called FcγRIIaH; FcgRIIaH
T2 sequence (looked up): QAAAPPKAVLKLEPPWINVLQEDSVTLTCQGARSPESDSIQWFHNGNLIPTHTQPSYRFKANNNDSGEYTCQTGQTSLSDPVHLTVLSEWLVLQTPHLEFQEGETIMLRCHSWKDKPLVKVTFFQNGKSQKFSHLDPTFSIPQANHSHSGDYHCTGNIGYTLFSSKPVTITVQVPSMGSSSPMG

[4] = molecular target: T3, human FcγRIIa type R (allotype R131) extracellular domain with C-terminal His tag (human, UniProt P12318 34-217); test: SPR (Biacore), antibody captured, FcγR analyte
T3 construct: extracellular domain; also called FcγRIIaR; FcγRIIa R type; not shown: His tag at the C terminus
T3 sequence (looked up): T2 sequence (looked up) with H134R

[5] = molecular target: T4, human FcγRIIIa type V (allotype V158) extracellular domain with C-terminal His tag (human, UniProt P08637 17-208); test: SPR (Biacore), antibody captured, FcγR analyte
T4 construct: extracellular domain; also called FcγRIIIaV; FcγRIIIa V type; not shown: His tag at the C terminus

[6] = molecular target: T5, human FcγRIIb extracellular domain with C-terminal His tag (human, UniProt P31994 43-217); test: SPR (Biacore), antibody captured, FcγR analyte
T5 construct: extracellular domain; not shown: His tag at the C terminus
T5 sequence (looked up): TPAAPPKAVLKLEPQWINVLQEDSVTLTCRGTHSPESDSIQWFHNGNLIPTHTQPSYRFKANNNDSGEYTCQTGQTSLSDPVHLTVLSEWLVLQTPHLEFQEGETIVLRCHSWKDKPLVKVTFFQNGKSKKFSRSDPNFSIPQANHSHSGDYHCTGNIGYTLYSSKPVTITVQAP

[7] = molecular target: T6, human FcγRIIb extracellular domain with C-terminal His tag (human, UniProt P31994 43-217); test: SPR (Biacore), antibody captured, FcγR analyte; remark: listed apart in the source
T6 construct: extracellular domain; not shown: His tag at the C terminus
T6 sequence (looked up): T5 sequence (looked up)

[8] = molecular target: T7, human FcγRIIa type R (R131) extracellular domain with C-terminal His tag (human, UniProt P12318 34-217); test: SPR (Biacore), antibody captured, FcγR analyte
T7 construct: extracellular domain; also called FcγRIIaR; not shown: His tag at the C terminus
T7 sequence (looked up): T2 sequence (looked up) with H134R

[9] = molecular target: T8, human FcγRIa extracellular domain with C-terminal His tag (human, UniProt P12314 16-292); test: SPR (Biacore), antibody captured, FcγR analyte
T8 construct: not shown: His tag at the C terminus
T8 sequence (P12314 16-292): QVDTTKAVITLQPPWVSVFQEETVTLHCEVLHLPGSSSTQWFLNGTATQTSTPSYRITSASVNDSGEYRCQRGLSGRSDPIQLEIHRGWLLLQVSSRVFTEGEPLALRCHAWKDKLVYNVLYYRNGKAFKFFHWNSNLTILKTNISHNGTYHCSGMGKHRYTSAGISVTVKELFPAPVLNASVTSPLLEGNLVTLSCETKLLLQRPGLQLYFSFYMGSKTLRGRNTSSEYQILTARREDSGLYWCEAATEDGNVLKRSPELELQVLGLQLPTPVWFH

[10] = molecular target: T9, human FcγRIIa type H (allotype H131) extracellular domain with C-terminal His tag (human, UniProt P12318 34-217); test: SPR (Biacore), antibody captured, FcγR analyte
T9 construct: extracellular domain; also called FcγRIIaH; FcγRIIa H type; not shown: His tag at the C terminus
T9 sequence (looked up): T2 sequence (looked up)

[11] = molecular target: T10, human FcγRIIa type H (H131) extracellular domain with C-terminal His tag (human, UniProt P12318 34-217); test: SPR (Biacore), antibody captured, FcγR analyte
T10 construct: extracellular domain; also called FcγRIIaH; not shown: His tag at the C terminus
T10 sequence (looked up): T2 sequence (looked up)

[12] = molecular target: T8, human FcγRIa extracellular domain with …; test: SPR (Biacore), antibody captured, FcγR analyte; remark: listed apart in the source
[13] = molecular target: T11, human FcγRIa extracellular domain with C-terminal His tag (human, UniProt P12314 16-292); test: SPR (Biacore), antibody captured, FcγR analyte; remark: listed apart in the source
T11 construct: not shown: His tag at the C terminus
T11 sequence (P12314 16-292): as above

[14] = molecular target: T12, human FcγRIIa type R extracellular domain (human, UniProt P12318 34-217); test: SPR (Biacore), antibody captured on chip, FcγR extracellular domain as analyte, 25 C
T12 construct: also called FcγRIIaR; FcγRIIa(R); not shown: His tag at the C terminus
T12 chain: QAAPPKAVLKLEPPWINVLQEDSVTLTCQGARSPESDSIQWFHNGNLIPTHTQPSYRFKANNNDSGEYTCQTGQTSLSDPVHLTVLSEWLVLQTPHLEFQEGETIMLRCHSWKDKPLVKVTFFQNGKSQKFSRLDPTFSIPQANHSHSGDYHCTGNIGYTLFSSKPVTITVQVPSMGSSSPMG

[15] = molecular target: T13, human FcγRIa extracellular domain (human, UniProt P12314 16-292); test: as above
T13 construct: also called CD64; not shown: His tag at the C terminus

[16] = molecular target: T14, human FcγRIIb extracellular domain (human, UniProt P31994 43-217); test: as above
T14 construct: also called FcγIIB; not shown: His tag at the C terminus
T14 sequence: T5 sequence (looked up)

T1 sequence (P55899 24-297 limits assumed, chain 1 of 2): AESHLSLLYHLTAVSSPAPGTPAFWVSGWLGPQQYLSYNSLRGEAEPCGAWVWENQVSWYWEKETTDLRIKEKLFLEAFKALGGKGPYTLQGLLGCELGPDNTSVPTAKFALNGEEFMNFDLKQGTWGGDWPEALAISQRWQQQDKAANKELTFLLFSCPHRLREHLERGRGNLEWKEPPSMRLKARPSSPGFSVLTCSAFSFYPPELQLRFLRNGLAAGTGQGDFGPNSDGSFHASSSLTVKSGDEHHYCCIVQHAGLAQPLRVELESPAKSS
T1 sequence (P61769 21-119 limits assumed, chain 2 of 2): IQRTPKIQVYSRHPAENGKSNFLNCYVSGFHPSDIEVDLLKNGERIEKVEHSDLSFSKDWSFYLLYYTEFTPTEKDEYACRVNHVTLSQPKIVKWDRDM
T4 sequence (P08637 17-208 F176V): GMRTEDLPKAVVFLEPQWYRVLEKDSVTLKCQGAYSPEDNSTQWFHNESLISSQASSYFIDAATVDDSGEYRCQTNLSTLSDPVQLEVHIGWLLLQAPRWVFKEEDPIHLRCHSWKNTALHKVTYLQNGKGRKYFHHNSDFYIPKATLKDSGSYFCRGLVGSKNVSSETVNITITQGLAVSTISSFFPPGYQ
T13 sequence (P12314 16-292): as the sequence (P12314 16-292) above

B1: Fv4-LS (antibody, human IgG1, kappa)
heavy: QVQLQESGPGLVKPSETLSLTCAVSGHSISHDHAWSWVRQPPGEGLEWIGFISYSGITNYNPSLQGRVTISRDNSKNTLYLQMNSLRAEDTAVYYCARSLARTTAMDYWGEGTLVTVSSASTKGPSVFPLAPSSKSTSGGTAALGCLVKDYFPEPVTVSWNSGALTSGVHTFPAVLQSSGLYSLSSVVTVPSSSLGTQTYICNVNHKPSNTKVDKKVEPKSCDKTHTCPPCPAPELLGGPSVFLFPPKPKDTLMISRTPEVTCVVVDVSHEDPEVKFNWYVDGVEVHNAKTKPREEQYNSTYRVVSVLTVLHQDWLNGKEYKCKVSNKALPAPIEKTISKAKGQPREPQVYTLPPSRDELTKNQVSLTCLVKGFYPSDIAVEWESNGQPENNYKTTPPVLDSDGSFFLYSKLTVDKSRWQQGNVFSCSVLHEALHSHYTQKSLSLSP
light: DIQMTQSPSSLSASVGDSVTITCQASTDISSHLNWYQQKPGKAPELLIYYGSHLLSGVPSRFSGSGSGTDFTFTISSLEAEDAATYYCGQGNRLPYTFGQGTKVEIERTVAAPSVFIFPPSDEQLKSGTASVVCLLNNFYPREAKVQWKVDNALQSGNSQESVTEQDSKDSTYSLSSTLTLSKADYEKHKVYACEVTHQGLSSPVTKSFNRGEC
notes: also called F22 (LS); F22; copies: 2 + 2
Kd (human FcRn [1]): 71 nM | Kd (human FcRn [2]): 160 nM

B2: Fv4-YTE (antibody, human IgG1, kappa)
heavy: QVQLQESGPGLVKPSETLSLTCAVSGHSISHDHAWSWVRQPPGEGLEWIGFISYSGITNYNPSLQGRVTISRDNSKNTLYLQMNSLRAEDTAVYYCARSLARTTAMDYWGEGTLVTVSSASTKGPSVFPLAPSSKSTSGGTAALGCLVKDYFPEPVTVSWNSGALTSGVHTFPAVLQSSGLYSLSSVVTVPSSSLGTQTYICNVNHKPSNTKVDKKVEPKSCDKTHTCPPCPAPELLGGPSVFLFPPKPKDTLYITREPEVTCVVVDVSHEDPEVKFNWYVDGVEVHNAKTKPREEQYNSTYRVVSVLTVLHQDWLNGKEYKCKVSNKALPAPIEKTISKAKGQPREPQVYTLPPSRDELTKNQVSLTCLVKGFYPSDIAVEWESNGQPENNYKTTPPVLDSDGSFFLYSKLTVDKSRWQQGNVFSCSVMHEALHNHYTQKSLSLSP
light: B1 light
notes: copies: 2 + 2
Kd (human FcRn [2]): 210 nM

B3: IL6R-BP089/IL6R-L (antibody, human IgG1, kappa)
heavy: B2 heavy with L236Y, P240D, Y254M, T256S, E258T, K328A, A332K, K441E
light: not shown
notes: EU numbering; alterations on IL6R-B3; copies: 2 + 2
Kd [3]: 20 µM

B4: IL6R-BP185/IL6R-L (antibody, human IgG1, kappa)
heavy: QVQLQESGPGLVKPSETLSLTCAVSGHSISHDHAWSWVRQPPGEGLEWIGFISYSGITNYNPSLQGRVTISRDNSKNTLYLQMNSLRAEDTAVYYCARSLARTTAMDYWGEGTLVTVSSASTKGPSVFPLAPSSKSTSGGTAALGCLVKDYFPEPVTVSWNSGALTSGVHTFPAVLQSSGLYSLSSVVTVPSSSLGTQTYICNVNHKPSNTKVDKKVEPKSCDKTHTCPPCPAPDYLGDDSVFLFPPKPKDTLMISRTPEVTCVVVDVSHEDGEVKFNWYVDGVEVHNAKTKPREEQYNSTYRVVSVLTVLHQDWLNGKEYKCKVSNAALPKPIEKTISKAKGQPREPQVYTLPPSRDELTKNQVSLTCLVKGFYPSDIAVEWESNGQPENNYKTTPPVLDSDGSFFLYSKLTVDKSRWQQGNVFSCSVMHEALHNHYTQESLSLSP
light: not shown
notes: copies: 2 + 2
Kd [4]: 880 nM | Kd [5]: 36 µM | Kd [6]: 69 nM

B5: IL6R-BP545/IL6R-L (antibody, human IgG1, kappa)
heavy: B4 heavy with Y236L, H270D, Y298D, A328K, K332R, D358E
light: not shown
notes: D356E introduced into IL6R-BP230; copies: 2 + 2
Kd [7]: 17 nM | Kd [8]: 570 nM

B6: IL6R-BP176/IL6R-L (antibody, human IgG1, kappa)
heavy: B4 heavy with Y236L, D239G, G273P, A328D
light: not shown
notes: as for B3
Kd [3]: 30 µM

B7: IL6R-BP206/IL6R-L (antibody, human IgG1, kappa)
heavy: B4 heavy with Y236L, D239G, A328K, K332R
light: not shown
notes: copies: 2 + 2
Kd [5]: 69 µM | Kd [6]: 200 nM

B8: IL6R-BP200/IL6R-L (antibody, human IgG1, kappa)
heavy: B4 heavy with A328D, K332R
light: not shown
notes: copies: 2 + 2
Kd [6]: 34 nM

B9: IL6R-BP246/IL6R-L (antibody, human IgG1, kappa)
heavy: B4 heavy with Y236L, S269Q, H270D, Y298D, K332R
light: not shown
notes: copies: 2 + 2
Kd [9]: 8 nM

B10: IL6R-BP184/IL6R-L (antibody, human IgG1, kappa)
heavy: B4 heavy with Y236L, D239G, A328K
light: not shown
notes: copies: 2 + 2
Kd [10]: 30 µM | Kd [4]: 2300 nM | Kd [5]: 66 µM

B11: IL6R-BP249/IL6R-L (antibody, human IgG1, kappa)
heavy: B4 heavy with H270D, Y298D, A328K, K332R
light: not shown
notes: copies: 2 + 2
Kd [9]: 7 nM

B12: IL6R-BP423/IL6R-L (antibody, human IgG1, kappa)
heavy: B4 heavy with Y236L, S269A, H270E, A328K, K332R
light: not shown
notes: alterations counted against IL6R-B3; copies: 2 + 2
Kd [11]: 2000 nM

B13: IL6R-BP129/IL6R-L (antibody, human IgG1, kappa)
heavy: B4 heavy with Y236L, D239G, G273P, Y298D, A328K
light: not shown
notes: as for B3
Kd [3]: 40 µM

B14: IL6R-BP202/IL6R-L (antibody, human IgG1, kappa)
heavy: B4 heavy with D235E, Y236L, K332R
light: not shown
notes: copies: 2 + 2
Kd [10]: 9.2 µM | Kd [12]: 95 nM

B15: IL6R-BP201/IL6R-L (antibody, human IgG1, kappa)
heavy: B4 heavy with Y236L, A328K, K332R
light: not shown
notes: copies: 2 + 2
Kd [4]: 840 nM | Kd [6]: 40 nM

B16: IL6R-BP547/IL6R-L (antibody, human IgG1, kappa)
heavy: B4 heavy with Y236L, H270D, Y298D, A328K, K332R, K411R
light: not shown
notes: K409R introduced into IL6R-BP230; copies: 2 + 2
Kd [7]: 19 nM | Kd [13]: 12 nM

B17: IL6R-BP230/IL6R-L (antibody, human IgG1, kappa)
heavy: B4 heavy with Y236L, H270D, Y298D, A328K, K332R
light: not shown
notes: copies: 2 + 2
Kd [7]: 18 nM | Kd [13]: 10 nM

B18: IL6R-BP561/IL6R-L (antibody, human IgG1, kappa)
heavy: B4 heavy with Y236L, H270D, E274D, Y298D, A328K, K332R
light: not shown
notes: copies: 2 + 2
Kd [14]: 510 nM | Kd [15]: 9.4 nM | Kd [16]: 18 nM

B19: IL6R-BP209/IL6R-L (antibody, human IgG1, kappa)
heavy: B4 heavy with D235E, Y236L, H270D, K332R
light: not shown
notes: copies: 2 + 2
Kd [10]: 10 µM | Kd [12]: 39 nM | Kd [5]: 41 µM | Kd [6]: 51 nM

B20: IL6R-BP233/IL6R-L (antibody, human IgG1, kappa)
heavy: B4 heavy with D235E, A328K
light: not shown
notes: copies: 2 + 2
Kd [9]: 70 nM

B21: IL6R-BP208/IL6R-L (antibody, human IgG1, kappa)
heavy: B4 heavy with Y236L, H270D, A328K, K332R
light: not shown
notes: copies: 2 + 2
Kd [10]: 8.3 µM | Kd [4]: 850 nM | Kd [5]: 53 µM

B22: IL6R-BP451/IL6R-L (antibody, human IgG1, kappa)
heavy: B4 heavy with Y236L, S269A, H270E, A328K, K332R, P398G
light: not shown
notes: P396G introduced into IL6R-BP423; copies: 2 + 2
Kd [11]: 2000 nM

B23: IL6R-BP195/IL6R-L (antibody, human IgG1, kappa)
heavy: B4 heavy with H270D, Y298D
light: not shown
notes: copies: 2 + 2
Kd [10]: 10 µM | Kd [4]: 910 nM | Kd [5]: 31 µM | Kd [6]: 50 nM

B24: IL6R-BP220/IL6R-L (antibody, human IgG1, kappa)
heavy: B4 heavy with Y236L, H270D, Y298D, A328K
light: not shown
notes: copies: 2 + 2
Kd [9]: 20 nM
